# Laboratory results published in patent publication US20240317882A1 (WUHAN BIO RAID BIOTECH, published 2024).
# Changes are numbered by the printed parent chain.
# B1: C6 anti-CD99 scFv (soluble) (scFv)
# scFv: EVQLQQSGAELVKPGASVKLSCTASGFNIKDTYIHWVKRRPEQGLEWIGRIDPANGNTKYDPKFQGKATITADTSSNTAYLQLSSLTSEDTAVYYCARRGLDYWGQGTLVTVSAGGGGSGGGGSGGGGSDVVMTQTPLTLSVTIGQPASISCKSSQSLLDGDGKTYLNWLLQRPGQSPKRLIYLVSKLDSGVPDRFTGSGSGTDFTLKISRVEAEDLGVYYCWQGTHFPRTFGGGTKLEIK
# notes: Selected from a CD99 phage antibody library; Expressed as soluble scFv in E. coli BL21 (DE3) from PET-28b (Nde I / Xho I) and purified
# B2: C2 anti-CD99 scFv (soluble) (scFv)
# scFv: B1 scFv with L101G, D102V, Y103D
# notes: Prior-art scFv; Expressed as soluble scFv in E. coli BL21 (DE3) from PET-28b; also called C2 in CN 110590960 A
# B3: C3 anti-CD99 scFv (soluble) (scFv)
# scFv: QVQLVQSGAEVKKPGASVKVSCKASGFNIKDTYIHWVRQAPGQGLEWMGRIDPANGNTKYDPKFQGRVTMTRDTSISTAYMELSRLRSDDTAVYYCARRGGVDWGQGTLVTVSSGGGGSGGGGSGGGGSDIVMTQTPLSLSVTPGQPASISCKSSQSLLDGDGKTYLNWLLQKPGQSPQRLIYLVSKLDSGVPDRFSGSGSGTDFTLKISRVEAEDVGVYYCWQGTHFPRTFGQGTKLEIK
# notes: Prior-art scFv; Expressed as soluble scFv in E. coli BL21 (DE3) from PET-28b; also called C3 in CN 110590960 A
# B4: C4 anti-CD99 scFv (soluble) (scFv)
# scFv: EVQLQQSGAELVKPGASVKLSCTASGFDIKDTYIHWVKQRPEQGLEWIGRIDPANGDTRYDPEFQGKASLTADTSSNTAYLQFSNLTSEDTAVYYCARRGGLSWGQGTTLTVSSGGGGSGGGGSGGGGSDIQMTQSPASLSASVGETVTITCRASGNIHNYLAWYQQKQGKSPQLLVYNAKTLADGVPSRFSGSGSGTQYSLKINSLQPEDFGSYYCQHFWSTPWTFGGGTKLEIK
# notes: Prior-art scFv; Expressed as soluble scFv in E. coli BL21 (DE3) from PET-28b
# Biological target: T1, extracellular domain of CD99 (UniProt P14209 23-122, limits assumed)
# T1 construct: extracellular domain; also called antigen CD99; purified recombinant extracellular domain of CD99
# T1 sequence (looked up): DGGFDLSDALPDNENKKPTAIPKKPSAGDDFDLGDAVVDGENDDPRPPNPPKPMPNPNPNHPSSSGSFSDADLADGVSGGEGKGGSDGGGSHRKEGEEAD
# Assay: surface plasmon resonance (BiacoreX), soluble scFv against extracellular domain of CD99
# Excerpt: The nucleotide sequences shown in SEQ ID NO: 2, SEQ ID NO: 4, SEQ ID NO: 6, SEQ ID NO: 8 and SEQ ID NO: 10 were artificially synthesized with the cleavage site Nde I and Xho I each added to either terminal. The synthetic nucleotide sequences were subjected to dual-enzyme digestion, and then ligated to a cloning vector PMD-19T subjected to the same digestion process as above. The ligated product was transformed into the competent cells, and then the positive clones were screened and sequenced. The plasmid was extracted from the positive clone with a correct sequence, and then subjected to dual-enzyme digestion by using Nde I and Xho I. Meanwhile, an expression vector PET-28b was also subjected to the same dual-enzyme digestion as above. The nucleotide fragment was ligated with the vector fragment, with which E. coli was transformed. The positive clones were screened and sequenced. The positive clone with correct sequence was selected for extracting the plasmid.
row,Binder,Kd [nM]
1,B1,450
2,B2,480
3,B3,510
4,B4,600
